In US20240270803A1 (Daiichi Sankyo, published 2024):
Where a chain is given by its changes, count along the chain named.

B1: peptide derivative H322AT (designed binder)
chain: DPQFGLFSKYRTPNCSQHEGMACYALYEPVCGSDMSTYANECTLCMKIREGGHNIKIIRNGPCGG
B2: peptide H218 (designed binder)
chain: B1 chain with S16L, Q17K, H18S, L26Y
B3: peptide H308 (designed binder)
chain: B1 chain with Q17D, E19A, Y24V, A39E, T43V
B4: peptide derivative H321AT (designed binder)
chain: B1 chain with Q17D, H18F, E19D, L26F
B5: peptide H321 (designed binder)
chain: B1 chain with Q17D, H18F, E19D, L26F, A39M, T43A
B6: peptide H322 (designed binder)
chain: B1 chain with A39V, T43A
B7: peptide derivative H308AT (designed binder)
chain: B1 chain with Q17D, E19A, Y24V
B8: peptide M7 (designed binder)
chain: B1 chain with Q17D, E19A, Y24V, L26F
B9: peptide H223 (designed binder)
chain: B1 chain with S16T, Q17M, H18D, E19M, Y24W, L26F
B10: peptide H228 (designed binder)
chain: B1 chain with S16G, Q17H, H18Y, E19N, M21W, Y24Q, L26F, Y27F
B11: peptide derivative H308_D1G_S16A (designed binder)
chain: B1 chain with D1G, S16A, Q17D, E19A, Y24V, A39E, T43V
B12: peptide derivative H321AT_D1G_S16A (designed binder)
chain: B1 chain with D1G, S16A, Q17D, H18F, E19D, L26F
B13: peptide derivative H322AT_D1G_S16A (designed binder)
chain: B1 chain with D1G, S16A

These binders were tested against T1, HTRA1 protease domain HTRA1 (cat) (human, UniProt F1N152 165-380 (bovine entry)) (assay: cell-based or functional assay).
T1 sequence (F1N152 165-380): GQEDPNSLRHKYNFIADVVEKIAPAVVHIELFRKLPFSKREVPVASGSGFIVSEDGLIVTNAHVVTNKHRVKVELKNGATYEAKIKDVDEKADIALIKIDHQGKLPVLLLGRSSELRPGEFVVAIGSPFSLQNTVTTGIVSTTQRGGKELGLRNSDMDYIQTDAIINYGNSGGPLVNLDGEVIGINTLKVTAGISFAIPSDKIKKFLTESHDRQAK
B1 was tested, and the “IC50 (nM) for HTRA1 (cat); decomposition rate of substrate peptide H2-Opt” value was 45 nM. For B2, the “IC50 (nM) for HTRA1 (cat); decomposition rate of substrate peptide H2-Opt” value was 72 nM. For B3, the “IC50 (nM) for HTRA1 (cat); decomposition rate of substrate peptide H2-Opt” value was 37 nM. For B4, the “IC50 (nM) for HTRA1 (cat); decomposition rate of substrate peptide H2-Opt” value was 46 nM. With B5 the “IC50 (nM) for HTRA1 (cat); decomposition rate of substrate peptide H2-Opt” value was 48 nM. For B6, the “IC50 (nM) for HTRA1 (cat); decomposition rate of substrate peptide H2-Opt” value was 50 nM. For B7, the “IC50 (nM) for HTRA1 (cat); decomposition rate of substrate peptide H2-Opt” value was 49 nM. With B8 the “IC50 (nM) for HTRA1 (cat); decomposition rate of substrate peptide H2-Opt” value was 43 nM. With B9 the “IC50 (nM) for HTRA1 (cat); decomposition rate of substrate peptide H2-Opt” value was 41 nM. B10 was tested, and the “IC50 (nM) for HTRA1 (cat); decomposition rate of substrate peptide H2-Opt” value was 71 nM.

The binders below were run against T2, full-length HTRA1 (HTRA1 (full)) (human, UniProt Q92743 23-480) (assay: cell-based or functional assay).
T2 sequence (Q92743 23-480): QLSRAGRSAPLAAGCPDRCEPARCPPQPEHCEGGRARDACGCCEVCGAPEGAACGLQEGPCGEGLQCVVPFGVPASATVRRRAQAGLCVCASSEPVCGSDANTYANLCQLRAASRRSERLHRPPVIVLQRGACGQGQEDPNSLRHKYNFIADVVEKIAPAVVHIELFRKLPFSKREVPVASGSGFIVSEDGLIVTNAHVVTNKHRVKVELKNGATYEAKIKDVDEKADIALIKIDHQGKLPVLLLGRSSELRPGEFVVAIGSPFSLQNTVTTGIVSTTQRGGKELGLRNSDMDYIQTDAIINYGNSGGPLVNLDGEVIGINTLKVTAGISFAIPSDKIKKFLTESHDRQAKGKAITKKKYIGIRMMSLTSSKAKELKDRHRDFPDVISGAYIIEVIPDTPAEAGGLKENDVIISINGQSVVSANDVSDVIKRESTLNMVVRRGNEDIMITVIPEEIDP
With B1 the “IC50 (nM) for HTRA1 (full); decomposition rate of substrate peptide H2-Opt” value was 25 nM. B2 was tested, and the “IC50 (nM) for HTRA1 (full); decomposition rate of substrate peptide H2-Opt” value was 55 nM. For B3, the “IC50 (nM) for HTRA1 (full); decomposition rate of substrate peptide H2-Opt” value was 15 nM. For B4, the “IC50 (nM) for HTRA1 (full); decomposition rate of substrate peptide H2-Opt” value was 18 nM. With B5 the “IC50 (nM) for HTRA1 (full); decomposition rate of substrate peptide H2-Opt” value was 29 nM. With B6 the “IC50 (nM) for HTRA1 (full); decomposition rate of substrate peptide H2-Opt” value was 17 nM. With B7 the “IC50 (nM) for HTRA1 (full); decomposition rate of substrate peptide H2-Opt” value was 31 nM. For B8, the “IC50 (nM) for HTRA1 (full); decomposition rate of substrate peptide H2-Opt” value was 24 nM. With B9 the “IC50 (nM) for HTRA1 (full); decomposition rate of substrate peptide H2-Opt” value was 66 nM. In the case of B10, the “IC50 (nM) for HTRA1 (full); decomposition rate of substrate peptide H2-Opt” value is reported as 38 nM.

Target: T1, HTRA1 protease domain HTRA1 (cat)
Test: cell-based or functional assay
Remark: another data set of the same source
In the case of B11, the “IC50 (nM) for HTRA1 (cat); decomposition rate of substrate peptide H2-Opt (n=3)” value (from here on “IC50 (nM) for HTRA1 (cat) … (n=3)”) is reported as 7.9 nM. In the case of B12, the “IC50 (nM) for HTRA1 (cat) … (n=3)” value is reported as 9 nM. B13 was tested, and the “IC50 (nM) for HTRA1 (cat) … (n=3)” value was 12.9 nM.

Target: T2, full-length HTRA1 (HTRA1 (full))
Test: cell-based or functional assay
Remark: another data set of the same source
For B11, the “IC50 (nM) for HTRA1 (full); decomposition rate of substrate peptide H2-Opt (n=3)” value (from here on “IC50 (nM) for HTRA1 (full) … (n=3)”) was 9.1 nM. For B12, the “IC50 (nM) for HTRA1 (full) … (n=3)” value was 12 nM. B13 was tested, and the “IC50 (nM) for HTRA1 (full) … (n=3)” value was 12.2 nM.
